Results on one molecule are retold here after patent US20110059064A1.

The target in assay [1] is T1, human voltage-gated potassium channel Kv1.3, expressed endogenously in human peripheral blood T cells (human), P22001.
The target of assay [2] is EGFP-tagged human IKCa1 Ca2+-activated K channel expressed in Cos-7 cells (human), O15554.
The target in assay [3] is T2, mouse Kv1.1 channel stably expressed in L929 cells (mouse), P16388.
T2 chain: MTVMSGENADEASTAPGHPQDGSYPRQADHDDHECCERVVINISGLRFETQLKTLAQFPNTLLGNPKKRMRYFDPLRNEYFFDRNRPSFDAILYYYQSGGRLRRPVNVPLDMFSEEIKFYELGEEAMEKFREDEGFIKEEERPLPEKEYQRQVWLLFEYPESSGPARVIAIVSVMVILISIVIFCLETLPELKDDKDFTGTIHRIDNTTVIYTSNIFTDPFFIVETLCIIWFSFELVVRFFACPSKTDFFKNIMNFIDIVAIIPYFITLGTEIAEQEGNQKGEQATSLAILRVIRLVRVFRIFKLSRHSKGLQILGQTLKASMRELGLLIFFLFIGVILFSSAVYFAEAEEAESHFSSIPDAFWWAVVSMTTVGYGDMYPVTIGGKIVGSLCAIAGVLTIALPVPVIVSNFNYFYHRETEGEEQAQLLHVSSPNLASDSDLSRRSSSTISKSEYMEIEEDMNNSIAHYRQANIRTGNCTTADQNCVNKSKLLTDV

The target of assay [4] is human Kv1.2 channel expressed in Cos-7 cells (human), P16389.
Sequence of human Kv1.2 channel expressed in Cos-7 cells (human), P16389 (P16389 whole entry): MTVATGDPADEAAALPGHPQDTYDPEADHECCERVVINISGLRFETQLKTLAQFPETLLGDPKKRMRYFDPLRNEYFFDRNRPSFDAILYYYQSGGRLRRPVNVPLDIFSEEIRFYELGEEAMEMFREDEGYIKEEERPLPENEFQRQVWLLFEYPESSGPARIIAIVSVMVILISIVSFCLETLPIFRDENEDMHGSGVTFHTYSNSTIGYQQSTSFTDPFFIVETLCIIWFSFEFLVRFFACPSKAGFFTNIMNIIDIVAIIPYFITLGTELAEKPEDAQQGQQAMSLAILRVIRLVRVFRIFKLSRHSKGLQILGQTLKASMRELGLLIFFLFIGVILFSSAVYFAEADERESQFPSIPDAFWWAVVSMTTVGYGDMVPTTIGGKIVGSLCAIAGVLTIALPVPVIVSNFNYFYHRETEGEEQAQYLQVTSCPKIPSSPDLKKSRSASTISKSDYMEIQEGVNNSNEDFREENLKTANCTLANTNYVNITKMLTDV
For assay [5], the target named is T1, human voltage-gated potassium channel …. The source holds these as a separate data set.

T1 sequence (P22001 whole entry): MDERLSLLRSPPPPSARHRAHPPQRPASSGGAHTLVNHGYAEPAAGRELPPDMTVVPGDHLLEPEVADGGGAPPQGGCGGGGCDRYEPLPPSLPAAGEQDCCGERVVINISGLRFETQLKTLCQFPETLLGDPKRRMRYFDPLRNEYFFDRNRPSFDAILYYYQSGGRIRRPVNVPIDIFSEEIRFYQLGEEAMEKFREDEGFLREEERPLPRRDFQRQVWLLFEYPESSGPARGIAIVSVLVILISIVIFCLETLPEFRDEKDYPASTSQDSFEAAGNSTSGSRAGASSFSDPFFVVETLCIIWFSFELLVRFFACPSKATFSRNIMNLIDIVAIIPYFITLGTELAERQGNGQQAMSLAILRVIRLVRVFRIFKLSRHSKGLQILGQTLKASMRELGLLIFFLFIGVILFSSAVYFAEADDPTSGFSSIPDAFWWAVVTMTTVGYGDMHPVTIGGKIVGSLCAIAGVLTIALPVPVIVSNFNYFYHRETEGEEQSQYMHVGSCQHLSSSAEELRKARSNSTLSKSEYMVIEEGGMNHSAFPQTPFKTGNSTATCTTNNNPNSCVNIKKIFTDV
Sequence of EGFP-tagged human IKCa1 Ca2+-activated K channel expressed in Cos-7 cells (human), O15554 (O15554 whole entry): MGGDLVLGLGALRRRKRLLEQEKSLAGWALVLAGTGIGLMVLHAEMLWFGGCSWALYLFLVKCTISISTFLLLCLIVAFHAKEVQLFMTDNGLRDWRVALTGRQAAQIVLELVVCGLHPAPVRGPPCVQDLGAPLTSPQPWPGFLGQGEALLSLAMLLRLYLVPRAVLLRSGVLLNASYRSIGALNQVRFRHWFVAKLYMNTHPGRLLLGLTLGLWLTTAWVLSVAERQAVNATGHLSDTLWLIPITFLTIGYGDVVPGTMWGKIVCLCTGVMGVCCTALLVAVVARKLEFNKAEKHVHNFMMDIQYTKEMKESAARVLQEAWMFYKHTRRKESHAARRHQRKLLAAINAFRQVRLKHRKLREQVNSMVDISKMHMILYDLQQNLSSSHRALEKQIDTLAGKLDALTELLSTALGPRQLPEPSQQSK

In the case of AAAISCVGSPECPPKCRAQGCKNGKCMNRKCKCYYC (modifications not checked) [Vm24 (native peptide purified from the venom of Vaejovis mexicanus smithi)], in assay [1], the Kd (commonly the free concentration of one partner at which half of the binding sites on the other are occupied at equilibrium, for simple one-to-one binding) worked out at 0.0029 nM. In assay [2], this molecule registered a Kd of 14 nM and a selectivity for hKv1.3 over hIKCa1 (fold) above 4500 fold. In addition, in assay [3], the Kd is 30 to 40 nM and the selectivity for hKv1.3 over mKv1.1 (fold) is above 10000 fold. Also, in assay [4], the Kd lay within 5 to 10 nM and the selectivity for hKv1.3 over hKv1.2 (fold) is above 1500 fold. Besides, in assay [5], the koff (usually the first-order rate constant of dissociation) was found to be 0.00026 s⁻¹ and the time constant for washout came out at 3800 s.
